Test results as given in US6339070B1, “Gene construct encoding a heterologous prodrug-activating enzyme and a cell targeting moiety” (Zeneca Limited, priority 1997, dated 2002).
Entries after “also recorded” stand apart in the source; their conditions may differ.

Experiments:
[1] = target: T1, human carcinoembryonic antigen (CEA) (Homo sapiens, UniProt P06731); assay: CEA-binding ELISA, anti human kappa light chain reporter antibody; settings: COS-7 transient expression supernatant
T1 sequence (P06731 35-676): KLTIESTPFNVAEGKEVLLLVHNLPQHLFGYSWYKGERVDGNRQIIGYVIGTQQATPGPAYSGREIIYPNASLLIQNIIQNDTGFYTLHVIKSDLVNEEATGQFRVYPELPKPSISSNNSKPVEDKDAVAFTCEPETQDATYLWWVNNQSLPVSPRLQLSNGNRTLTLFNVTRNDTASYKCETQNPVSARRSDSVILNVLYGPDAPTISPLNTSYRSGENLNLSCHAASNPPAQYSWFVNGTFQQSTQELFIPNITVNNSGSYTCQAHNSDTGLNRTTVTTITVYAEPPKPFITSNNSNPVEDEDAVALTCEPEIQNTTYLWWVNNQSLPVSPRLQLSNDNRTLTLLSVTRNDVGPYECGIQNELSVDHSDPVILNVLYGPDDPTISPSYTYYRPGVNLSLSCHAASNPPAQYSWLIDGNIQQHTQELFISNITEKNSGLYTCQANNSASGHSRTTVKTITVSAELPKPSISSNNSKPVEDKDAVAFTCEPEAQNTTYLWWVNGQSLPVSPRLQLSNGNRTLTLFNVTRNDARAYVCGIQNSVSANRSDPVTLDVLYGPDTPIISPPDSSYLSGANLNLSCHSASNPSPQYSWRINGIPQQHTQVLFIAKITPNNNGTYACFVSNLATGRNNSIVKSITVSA
Protocol: For the CEA ELISA each well of a 96 well immunoplate (NUNC MAXISORB™) was coated with 50 ng CEA in 50 mM carbonate/bicarbonate coating buffer pH9.6 (buffer capsules—Sigma C3041) and incubated at 4° overnight. The plate was washed three times with PBS-TWEEN™ (PBS+0.05% TWEEN™ 20) and then blocked 150 μl per well of 1% BSA in PBS-TWEEN™ for 1 hour at room temperature. The plate was washed three times with PBS-TWEEN™, 100 μl of test sample added per well and incubated at room temperature for 2 hours. The plate was washed three times with PBS-TWEEN™, 100 μl per well of a 1/500 dilution of HRPO-labelled goat anti-human kappa antibody (Sigma A 7164) was added in 1% BSA in PBS-TWEEN™ and incubated at room temperature on a rocking platform for at least 1 hour. The plate was washed three times with PBS-TWEEN™ and then once more with PBS. To detect binding, add 100 μl per well of developing solution (one capsule of phosphate-citrate buffer—Sigma P4922—dissolved in 100 ml H2O to which is added one 30 mg tablet o-phenylenediamine dihydrochloride—Sigma P8412) and incubated for up to 15 minutes. The reaction was stopped by adding 75 μl 2M H2SO4, and absorbance read at 490 nm.

[2] = Enzyme activity in plasma samples (methotrexate turnover, HPLC); format: in vivo; settings: except when tumour enzyme activity exceeded 2.0 U/g
Protocol: To act as a standard for the assay, a CPG2 enzyme standard curve was prepared in 20% normal plasma to the following concentrations: 0.2, 0.4, 0.6, 0.8 and 1.0 U/ml. Similarly all test plasma samples were also diluted to 20% normal plasma. Further dilutions of these samples e.g. neat 1/10, 1/20 and 1/50 were also made using 20% normal serum. 200 μl aliquots of each CPG2 standard and test sample dilutions were equilibrated to 30°. 2 μl of 10 mM MTX was added to each of the tubes and mixed well. […]. The reaction was stopped after exactly 10 minutes (to increase the sensitivity of the assay the incubation time can be increased to 30 minutes) by adding 500 μl ice cold methanol+0.2% TFA and assayed for product using HPLC detection as described above in Example 10.

[3] = tested on: recombinant Colo320DM (CEA negative); assay: Retention of secreted fusion protein on recombinant Colo320DM cells (cell based ELISA); settings: listed as (A5B7-CPG2)2 fusion protein
Protocol: The vertical axis represents optical density readings measured at 490 nm and the horizontal axis the amount of added anti-CEA antibody (IIE6) measured in ng/ml of protein. […] Firstly, the cell lines were fixed and washed to remove the existing supernatant and any unbound material after which increasing concentrations of the anti-CEA antibody (IIE6) were added to the fixed cells. The assay was developed as described in the text to determine the level of retention of any secreted material and whether further added antibody would increase the signal. […] Since the recombinant Colo320DM are CEA negative no increase in signal due to anti-CEA antibody the results for these cells would be expected. In the case of the recombinant LoVo cells the addition signal due the amounts of antibody added in this assay may be swamped except at the highest dose due to the relative strength of the original signal.
LoVo colorectal tumour cells transfected with the (A5B7-CPG2)2 fusion protein gene have been shown both to secrete and to retain the fusion protein on their cell surface. […] The recombinant LoVo cells still gave such a strong initial signal that the added antibody made little difference to the overall signal obtained, which was considerably higher than any of the control experiments.

B1: (A5B7 Fab-CPG2)2 fusion protein: chimaeric A5B7 anti-CEA Fab, heavy chain Fd linked via (G4S)3 linker to CPG2 R6, dimerised through CPG2 (antibody)
heavy: EVKLVESGGGLVQPGGSLRLSCATSGFTFTDYYMNWVRQPPGKALEWLGFIGNKANGYTTEYSASVKGRFTISRDKSQSILYLQMNTLRAEDSATYYCTRDRGLRFYFDYWGQGTTLTVSSASTKGPSVFPLAPCSRSTSESTAALGCLVKDYFPEPVTVSWNSGALTSGVHTFPAVLQSSGLYSLSSVVTVPSSNFGTQTYTCNVDHKPSNTKVDKTVGGGGSGGGGSGGGGSQKRDNVLFQAATDEQPAVIKTLEKLVNIETGTGDAEGIAAAGNFLEAELKNLGFTVTRSKSAGLVVGDNIVGKIKGRGGKNLLLMSHMDTVYLKGILAKAPFRVEGDKAYGPGIADDKGGNAVILHTLKLLKEYGVRDYGTITVLFNTDEEKGSFGSRDLIQEEAKLADYVLSFEPTSAGDEKLSLGTSGIAYVQVQITGKASHAGAAPELGVNALVEASDLVLRTMNIDDKAKNLRFQWTIAKAGQVSNIIPASATLNADVRYARNEDFDAAMKTLEERAQQKKLPEADVKVIVTRGRPAFNAGEGGKKLVDKAVAYYKEAGGTLGVEERTGGGTDAAYAALSGKPVIESLGLPGFGYHSDKAEYVDISAIPRRLYMAARLIMDLGAGK
light: QTVLSQSPAILSASPGEKVTMTCRASSSVTYIHWYQQKPGSSPKSWIYATSNLASGVPARFSGSGSGTSYSLTISRVEAEDAATYYCQHWSSKPPTFGGGTKLEIKRTVAAPSVFIFPPSDEQLKSGTASVVCLLNNFYPREAKVQWKVDNALQSGNSQESVTEQDSKDSTYSLSSTLTLSKADYEKHKVYACEVTHQGLSSPVTKSFNRGEC
Question: With B1 as the molecule, how does the “CEA binding in anti-CEA ELISA” value [1] read?
Answer: binding of protein at levels commensurate with a bivalent A5B7 antibody molecule

Question: And the “enzyme activity in plasma” value [2]?
Answer: No activity was seen in the plasma

Question: And the “retention of expressed fusion protein on cell surface (OD 490 nm)” value [3]?
Answer: some retention of the expressed fusion protein (probably non-specific); also recorded: much weaker reading than the LoVo cells but the signal was higher than background
